Results: patent publication US20120237948A1 (SHIONOGI, published 2012)

How the values were obtained:
Experiment in all cases: competitive ELISA against the biotin-labeled SEQ ID NO: 2 peptide
[1] = biological target: T1, MMP13-undigested human type II collagen (human, UniProt P02458 182-1241, limits assumed)
T1 construct: Triple helix of three chains; also called native type II collagen; non-digested collagen (type II)
Protocol: (§1) To 10 μg/10 μl of a solution of human type I, type II, or type III collagen (Chondrex), 10 μl of 2 × enzyme reaction buffer (50 mM Tris buffer, pH 7.6, containing 0.3 M NaCl, 10 mM CaCl₂, and 0.005% Brij35) was added for neutralization. To the solution, 0.2 μg of activated human MMP13 (human Pro-MMP13 (Calbiochem), activated by incubation with 1 mM APMA at 37° C. for 2 hours), and the mixture was allowed to react overnight at 37° C. Subsequently, stop solution (EDTA, final concentration 5 mM) was added to prepare the natural type neoepitope solution.
(§2) To a 384-well microtiter plate (Nunc), 35 μl of Tris buffer (50 mM Tris-HCl, pH7.5) containing 0.35 μg of anti-mouse IgG-Fc antibody (Jackson Immuno Research) was added and incubated overnight at 4° C. for adsorption. Each well was washed once with 90 μl of washing solution (physiological saline containing 0.01% Tween20), and then 0.1 ml of Block Ace (Dainippon pharmaceuticals) was added. The plate was allowed to stand for 2 hours at room temperature for blocking (an anti-mouse IgG antibody-solid-phased plate). After each well was washed once with 90 μl of the washing solution, 10 μl of buffer A containing 6.4-250 nM of the natural type neoepitope solution was mixed with 10 μl of buffer A containing 1 ng/ml of the biotin-labeled neoepitope peptide (SEQ ID NO: 2) and 200 ng/ml of Streptavidin-HRP, and 10 μl of buffer A containing 15 ng/ml of the anti-neoepitope antibody (20A10). Then the mixture was allowed to react at 4° C. for 16 hours.
(§3) Subsequently, each well was washed three times with 90 μl of the washing solution, and 25 μl of TMB-Substrate Chromogen (DAKO) was added and incubated for 30 minutes at room temperature for color development, followed by the addition of 25 μl of 0.05 M sulfuric acid to terminate the reaction. Then, the absorbance at 450 nm was measured.

[2] = biological target: T2, MMP13-undigested human type I collagen (human, UniProt P02452 162-1218; P08123 80-1119)
T2 construct: The chain composition comes from general knowledge; also called non-digested collagen (type I)
T2 sequence (P02452 162-1218, chain 1 of 2): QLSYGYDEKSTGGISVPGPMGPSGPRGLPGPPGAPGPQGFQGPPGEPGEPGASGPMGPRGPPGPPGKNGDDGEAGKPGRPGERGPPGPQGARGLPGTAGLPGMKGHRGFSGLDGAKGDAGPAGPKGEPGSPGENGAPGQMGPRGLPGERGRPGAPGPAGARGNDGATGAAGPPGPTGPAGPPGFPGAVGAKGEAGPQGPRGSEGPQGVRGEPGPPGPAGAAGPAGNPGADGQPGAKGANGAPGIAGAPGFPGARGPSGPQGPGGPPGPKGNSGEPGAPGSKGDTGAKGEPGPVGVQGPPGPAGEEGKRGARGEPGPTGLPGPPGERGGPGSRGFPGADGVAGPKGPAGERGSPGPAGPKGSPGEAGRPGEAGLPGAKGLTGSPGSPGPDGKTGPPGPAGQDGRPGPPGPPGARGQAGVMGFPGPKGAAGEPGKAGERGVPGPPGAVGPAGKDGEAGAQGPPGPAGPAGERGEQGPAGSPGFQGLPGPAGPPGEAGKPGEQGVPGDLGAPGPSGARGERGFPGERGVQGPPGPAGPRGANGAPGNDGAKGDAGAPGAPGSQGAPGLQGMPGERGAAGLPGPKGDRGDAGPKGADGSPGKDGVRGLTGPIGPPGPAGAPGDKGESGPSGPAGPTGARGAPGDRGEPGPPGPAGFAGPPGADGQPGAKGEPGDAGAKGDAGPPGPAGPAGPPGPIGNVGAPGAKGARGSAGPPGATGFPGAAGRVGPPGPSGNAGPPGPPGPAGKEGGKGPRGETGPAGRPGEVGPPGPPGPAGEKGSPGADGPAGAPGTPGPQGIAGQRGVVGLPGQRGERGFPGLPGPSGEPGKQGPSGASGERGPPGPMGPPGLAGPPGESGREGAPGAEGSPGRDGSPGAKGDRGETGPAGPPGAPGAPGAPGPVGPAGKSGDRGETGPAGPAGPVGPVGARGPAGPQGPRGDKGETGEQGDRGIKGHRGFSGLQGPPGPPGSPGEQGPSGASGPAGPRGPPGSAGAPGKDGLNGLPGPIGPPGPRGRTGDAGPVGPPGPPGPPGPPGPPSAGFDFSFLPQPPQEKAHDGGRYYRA
T2 sequence (P08123 80-1119, chain 2 of 2): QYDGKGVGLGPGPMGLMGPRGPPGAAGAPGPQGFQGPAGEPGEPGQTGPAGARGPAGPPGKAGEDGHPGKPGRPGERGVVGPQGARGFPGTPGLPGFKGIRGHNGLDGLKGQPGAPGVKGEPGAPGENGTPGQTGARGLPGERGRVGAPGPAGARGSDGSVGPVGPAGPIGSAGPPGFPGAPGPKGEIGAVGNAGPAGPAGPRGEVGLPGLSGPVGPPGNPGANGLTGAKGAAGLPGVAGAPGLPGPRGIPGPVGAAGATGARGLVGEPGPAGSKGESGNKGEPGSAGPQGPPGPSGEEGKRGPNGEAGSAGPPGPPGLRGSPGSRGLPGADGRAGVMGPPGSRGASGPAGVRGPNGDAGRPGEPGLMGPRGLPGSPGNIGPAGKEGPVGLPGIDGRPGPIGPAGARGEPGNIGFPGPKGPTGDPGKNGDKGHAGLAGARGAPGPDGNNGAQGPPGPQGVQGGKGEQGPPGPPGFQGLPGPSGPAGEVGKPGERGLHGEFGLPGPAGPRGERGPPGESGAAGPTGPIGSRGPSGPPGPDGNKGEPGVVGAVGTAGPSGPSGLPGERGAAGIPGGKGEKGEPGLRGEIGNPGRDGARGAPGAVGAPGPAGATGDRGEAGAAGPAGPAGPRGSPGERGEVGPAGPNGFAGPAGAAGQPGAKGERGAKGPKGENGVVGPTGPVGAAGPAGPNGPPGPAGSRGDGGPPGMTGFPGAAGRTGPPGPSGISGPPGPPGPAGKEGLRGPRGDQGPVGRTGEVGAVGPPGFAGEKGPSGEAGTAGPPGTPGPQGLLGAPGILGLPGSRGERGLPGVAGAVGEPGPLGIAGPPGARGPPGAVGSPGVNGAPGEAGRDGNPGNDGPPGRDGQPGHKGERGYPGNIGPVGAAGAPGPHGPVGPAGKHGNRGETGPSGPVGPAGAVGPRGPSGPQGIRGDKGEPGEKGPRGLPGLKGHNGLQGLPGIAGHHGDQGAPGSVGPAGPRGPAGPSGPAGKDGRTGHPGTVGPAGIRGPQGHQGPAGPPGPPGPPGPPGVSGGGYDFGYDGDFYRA
Protocol: as §1, §2, §3

[3] = biological target: T3, MMP13-undigested human type III collagen (human, UniProt P02461 154-1221)
T3 construct: also called non-digested collagen (type III)
T3 sequence (looked up): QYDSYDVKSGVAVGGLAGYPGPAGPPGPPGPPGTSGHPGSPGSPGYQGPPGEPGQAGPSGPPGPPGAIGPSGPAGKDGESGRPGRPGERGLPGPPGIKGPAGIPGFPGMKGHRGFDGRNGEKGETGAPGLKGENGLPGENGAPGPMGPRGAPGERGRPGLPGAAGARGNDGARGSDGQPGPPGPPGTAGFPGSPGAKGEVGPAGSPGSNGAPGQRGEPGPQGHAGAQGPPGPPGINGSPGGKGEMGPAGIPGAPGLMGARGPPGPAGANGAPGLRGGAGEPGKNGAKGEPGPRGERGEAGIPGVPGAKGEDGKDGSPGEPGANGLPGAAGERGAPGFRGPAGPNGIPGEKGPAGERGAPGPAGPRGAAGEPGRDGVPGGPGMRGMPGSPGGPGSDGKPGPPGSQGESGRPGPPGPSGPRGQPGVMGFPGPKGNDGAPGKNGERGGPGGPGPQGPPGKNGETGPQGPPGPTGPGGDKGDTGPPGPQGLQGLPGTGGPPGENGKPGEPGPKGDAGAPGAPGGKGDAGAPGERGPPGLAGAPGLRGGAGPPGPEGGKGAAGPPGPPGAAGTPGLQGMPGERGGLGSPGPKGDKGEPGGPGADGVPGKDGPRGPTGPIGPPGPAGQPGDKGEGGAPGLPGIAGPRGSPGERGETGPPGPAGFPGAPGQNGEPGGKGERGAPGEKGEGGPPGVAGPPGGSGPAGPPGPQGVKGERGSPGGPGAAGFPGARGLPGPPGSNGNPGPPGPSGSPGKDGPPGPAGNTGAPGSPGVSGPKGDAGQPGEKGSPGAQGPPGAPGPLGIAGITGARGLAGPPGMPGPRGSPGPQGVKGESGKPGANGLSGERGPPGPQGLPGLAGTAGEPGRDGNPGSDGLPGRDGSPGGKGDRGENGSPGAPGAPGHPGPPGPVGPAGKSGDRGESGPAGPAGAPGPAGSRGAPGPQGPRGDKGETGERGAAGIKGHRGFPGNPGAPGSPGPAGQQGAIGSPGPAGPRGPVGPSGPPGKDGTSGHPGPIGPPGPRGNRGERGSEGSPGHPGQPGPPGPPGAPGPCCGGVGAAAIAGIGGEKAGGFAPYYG
Protocol: as §1, §2, §3

Measured: binding result

T1 sequence (P02458 182-1241 limits assumed): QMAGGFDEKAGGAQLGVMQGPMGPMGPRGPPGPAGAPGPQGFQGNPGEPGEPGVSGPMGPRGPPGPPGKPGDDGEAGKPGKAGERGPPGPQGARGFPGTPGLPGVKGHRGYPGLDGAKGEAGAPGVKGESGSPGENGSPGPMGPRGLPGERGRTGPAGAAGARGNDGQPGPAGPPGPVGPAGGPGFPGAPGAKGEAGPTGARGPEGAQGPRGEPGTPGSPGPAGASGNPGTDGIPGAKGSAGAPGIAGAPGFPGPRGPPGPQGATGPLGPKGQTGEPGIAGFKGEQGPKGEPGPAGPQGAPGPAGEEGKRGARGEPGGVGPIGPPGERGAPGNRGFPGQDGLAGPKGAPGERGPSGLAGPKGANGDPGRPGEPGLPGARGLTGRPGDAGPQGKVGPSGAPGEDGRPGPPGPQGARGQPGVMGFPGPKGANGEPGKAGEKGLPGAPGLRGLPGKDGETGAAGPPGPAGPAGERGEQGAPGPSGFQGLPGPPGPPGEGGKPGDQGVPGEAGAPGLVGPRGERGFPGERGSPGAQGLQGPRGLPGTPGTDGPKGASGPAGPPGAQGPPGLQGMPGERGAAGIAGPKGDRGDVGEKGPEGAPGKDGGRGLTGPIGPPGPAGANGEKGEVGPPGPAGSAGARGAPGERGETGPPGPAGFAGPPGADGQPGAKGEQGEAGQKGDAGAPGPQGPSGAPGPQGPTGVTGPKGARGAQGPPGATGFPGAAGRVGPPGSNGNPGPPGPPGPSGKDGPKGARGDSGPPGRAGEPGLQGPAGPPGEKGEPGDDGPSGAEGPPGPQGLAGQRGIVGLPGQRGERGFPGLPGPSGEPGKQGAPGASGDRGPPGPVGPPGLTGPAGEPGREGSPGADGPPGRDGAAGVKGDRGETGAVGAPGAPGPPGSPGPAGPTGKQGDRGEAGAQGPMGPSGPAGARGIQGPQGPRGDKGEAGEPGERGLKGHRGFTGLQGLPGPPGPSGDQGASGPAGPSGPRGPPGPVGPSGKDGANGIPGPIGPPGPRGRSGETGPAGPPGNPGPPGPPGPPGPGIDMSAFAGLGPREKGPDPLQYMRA

B1: anti-neoepitope antibody 20A10 (antibody, IgG1, V domains shown)
VH: QIQLVQSGPELKEPGETVRISCKASGYTFTKYGINWVKQAPGKGLEWMAWINTYSGMTTYADDFKGRFAFSLETSANTAYLQINHLKNDDTATYFCARSLGYDYGGFAYWGQGTLVTVSA
VL: DVLLTQTPLSLPVSLGDQAFISCRSGQTLVHDNENTYFHWYLQKPGQSPKLLIYKISNRFSGVPDRFSGSGSGTDFTLKISRVEPEDLGIYFCSQNTHVPFTFGSGTKLEIKR
notes: also called HRP-labeled 20A10
no binding: all assays above
